Measured values taken from US20220204585A1 (RUSH UNIVERSITY MEDICAL CENTER, published 2022).

B1: Clone 13 149-014-13 VH only (other)
VH: EVQLLESGGGLVQPGGSLRLSCAASGFTFSSDLMSWVRQAPGKGLEWVSAISGSGGSTYYADSVKGRFTISRDNSKNTLYLQMNSLRAEDTAVYYCAKNEVIFDYWGQGTLVTVSSASTKGLSMFDYWGQGTKVEIK
B2: Clone 14 149-014-14 (VK-Linker-VH) (scFv)
scFv: DVVMTQSPLSLPATLGQPASISCRSSQSLVYTDGNTYLNWFQQRPGQSPRRLIYKVSNRDSGVPDRFSGSGSGTHFTLKISRVEAEDVGVYYCMQGTHWPPTFGQGTKVEIKEGKSSGSGSESKASEVQLVQSGAEVKKPGASVKVSCKASGGTFSSYAISWVRQAPGQGLEWMGGIIPIFGTANYAQKFQGRVTITADESTSTAYMELSSLRSEDTAVYYCASSGVDYWGQGTLVTVSS
notes: From the naive human scFv phage display library
B3: Clone 5 149-014-5 (VL-Linker-VH) (scFv)
scFv: SSELTQDPAVSVALGQTVRITCQGDSLRSYYASWYQQKPGQAPVLVIYGKNNRPSGIPDRFSGSTSGNFASLTITGAQAEDGADYYCHSRDSSGNHLVFGGGTKLTVLGEGKSSGSGSESKASEVQLVQSGAEVKKPGESLKISCKGSGYSFTSYWIGWVRQMPGKGLEWMGIIYPGDSDTRYSPSFQGQVTISADKSISTAYLQWSSLKASDTAMYYCARRARGAFDIWGQGTLVTVSS
notes: as for B2
B4: Clone 6 149-014-6 (VL-linker-VH) (scFv)
scFv: QSVLTQPPSASGTPGQRVTISCSGSSSNIGSNYVSWYQQLPGTAPKLLIYDNNKRPSGIPDRFSGSKSGTSATLGITGLQTGDEADYYCGTWDSSLSALYVFGAGTKLTVLGEGKSSGSGSESKASQVQLQESGPGLVKPSETLSLTCSVSGGSTSSYYWSWIRQPPGKGLEWIGYISNSGSTNYNPSLKSRVTMSIDTSNNQFSLKLSSVTAADTAVYYCASHLGATWRWGQGTLVTVSS
notes: as for B2

How the values were obtained:
[1] = biological target: T1, CD11b A-domain CD11bA-F275S/F302G, construct BZ348013 (human, UniProt P11215 148-337); assay: counterscreen phage ELISA on coated antigen
T1 chain: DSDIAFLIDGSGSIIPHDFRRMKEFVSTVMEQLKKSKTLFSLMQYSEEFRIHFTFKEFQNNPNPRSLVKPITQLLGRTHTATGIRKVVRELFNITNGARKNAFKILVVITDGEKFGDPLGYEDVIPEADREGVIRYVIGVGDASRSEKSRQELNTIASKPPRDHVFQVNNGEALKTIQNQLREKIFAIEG
Method: (§1) After 2 rounds of enrichment against the primary target, positive binders were identified by phage ELISA and analyzed by restriction mapping & sequencing for identification of unique clones. Small scale phage growths were diluted 1:5 in TBS+casein. Nunc Maxi-Sorp strip wells were coated at ˜5 ug/ml of each test protein overnight at 4° C. and blocked with TBS+casein. The diluted phage were applied and allowed to bind for 1 hour with shaking. The wells were washed 4 times with TBS+0.05% Tween20 and twice with TBS. Bound phage were detected by incubation for 1 hour with anti-M13-HRP and after washing as above, developed with TMB. Absorbance at 450 nm was read after acidification of the wells.

[2] = biological target: T2, CD11b A-domain CD11bA WT (WT residues 132-321), construct BZ348007 (human, UniProt P11215 148-337); assay: counterscreen phage ELISA on coated antigen
T2 construct: Residues numbered on mature CD11b (signal peptide of 16 residues removed); also called His-TEV-CD11b
Method: as §1

[3] = biological target: T3, CD11b A-domain CD11bA-D140A/F275S/F302G, construct BZ348010 (human, UniProt P11215 148-337); assay: counterscreen phage ELISA on coated antigen
T3 chain: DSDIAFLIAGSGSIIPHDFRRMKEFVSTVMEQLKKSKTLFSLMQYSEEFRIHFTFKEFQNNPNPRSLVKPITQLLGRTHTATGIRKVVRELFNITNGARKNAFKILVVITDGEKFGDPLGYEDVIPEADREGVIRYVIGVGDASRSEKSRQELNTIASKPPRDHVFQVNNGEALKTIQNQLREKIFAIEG
Method: as §1

[4] = biological target: T4, CD11b A-domain CD11bA-D242A/F275S/F302G, construct BZ348014 (human, UniProt P11215 148-337); assay: counterscreen phage ELISA on coated antigen
T4 construct: the antigen on which the libraries were enriched; also called BZ348014 antigen
T4 chain: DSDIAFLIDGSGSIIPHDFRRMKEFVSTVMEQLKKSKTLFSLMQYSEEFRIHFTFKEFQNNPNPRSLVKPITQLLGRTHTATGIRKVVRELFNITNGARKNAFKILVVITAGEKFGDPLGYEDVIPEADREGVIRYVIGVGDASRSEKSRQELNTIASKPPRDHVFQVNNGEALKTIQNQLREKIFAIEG
Method: as §1

[5] = biological target: T5, CD11b A-domain CD11bA-D140A, construct BZ348008 (human, UniProt P11215 148-337); assay: counterscreen phage ELISA on coated antigen
T5 construct: MIDAS residue D140 replaced with alanine (no MIDAS metal)
T5 chain: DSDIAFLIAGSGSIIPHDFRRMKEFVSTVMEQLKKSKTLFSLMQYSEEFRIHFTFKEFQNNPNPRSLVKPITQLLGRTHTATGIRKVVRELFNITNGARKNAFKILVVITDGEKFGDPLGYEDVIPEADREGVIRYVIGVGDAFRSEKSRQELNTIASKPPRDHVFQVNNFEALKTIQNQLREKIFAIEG
Method: as §1

[6] = biological target: T6, CD11b A-domain CD11bA-D242A, construct BZ348011 (human, UniProt P11215 148-337); assay: counterscreen phage ELISA on coated antigen
T6 construct: MIDAS residue D242 replaced with alanine (no MIDAS metal)
T6 chain: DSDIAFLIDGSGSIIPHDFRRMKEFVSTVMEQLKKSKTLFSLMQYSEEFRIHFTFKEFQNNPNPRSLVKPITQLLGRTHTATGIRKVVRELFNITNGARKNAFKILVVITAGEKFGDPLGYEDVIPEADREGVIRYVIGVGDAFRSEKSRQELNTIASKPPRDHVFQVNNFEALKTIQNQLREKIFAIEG
Method: as §1

[7] = biological target: T4, CD11b A-domain …; assay: phage ELISA, phage diluted 1:5 on coated antigen (~5 ug/ml), anti-M13-HRP
Method: as §1

[8] = biological target: T1, CD11b A-domain CD11bA-F275S/F302G, …; assay: phage ELISA dilution series, phage diluted 1:16
[9] = biological target: T2, CD11b A-domain CD11bA WT (WT residues …); assay: phage ELISA dilution series, phage diluted 1:16
[10] = biological target: T3, CD11b A-domain …; assay: phage ELISA dilution series, phage diluted 1:16
[11] = biological target: T4, CD11b A-domain …; assay: phage ELISA dilution series, phage diluted 1:16
[12] = biological target: T5, CD11b A-domain CD11bA-D140A, construct …; assay: phage ELISA dilution series, phage diluted 1:16
[13] = biological target: T6, CD11b A-domain CD11bA-D242A, construct …; assay: phage ELISA dilution series, phage diluted 1:16
[14] = biological target: T1, CD11b A-domain CD11bA-F275S/F302G, …; assay: phage ELISA dilution series, phage diluted 1:50
[15] = biological target: T2, CD11b A-domain CD11bA WT (WT residues …); assay: phage ELISA dilution series, phage diluted 1:50
[16] = biological target: T3, CD11b A-domain …; assay: phage ELISA dilution series, phage diluted 1:50
[17] = biological target: T4, CD11b A-domain …; assay: phage ELISA dilution series, phage diluted 1:50
[18] = biological target: T5, CD11b A-domain CD11bA-D140A, construct …; assay: phage ELISA dilution series, phage diluted 1:50
[19] = biological target: T6, CD11b A-domain CD11bA-D242A, construct …; assay: phage ELISA dilution series, phage diluted 1:50
[20] = biological target: T1, CD11b A-domain CD11bA-F275S/F302G, …; assay: phage ELISA dilution series, phage diluted 1:5
[21] = biological target: T2, CD11b A-domain CD11bA WT (WT residues …); assay: phage ELISA dilution series, phage diluted 1:5
[22] = biological target: T3, CD11b A-domain …; assay: phage ELISA dilution series, phage diluted 1:5
[23] = biological target: T4, CD11b A-domain …; assay: phage ELISA dilution series, phage diluted 1:5
[24] = biological target: T5, CD11b A-domain CD11bA-D140A, construct …; assay: phage ELISA dilution series, phage diluted 1:5
[25] = biological target: T6, CD11b A-domain CD11bA-D242A, construct …; assay: phage ELISA dilution series, phage diluted 1:5

| Binder | Absorbance at 450 nM [1] | Absorbance at 450 nM [2] | Absorbance at 450 nM [3] | Absorbance at 450 nM [4] | Absorbance at 450 nM [5] | Absorbance at 450 nM [6] | Absorbance at 450 nM [7] | other results |
| --- | --- | --- | --- | --- | --- | --- | --- | --- |
| B1 | 0.954 | 0.169 | 0.495 | 0.866 | 0.228 | 0.183 | 0.499 | – |
| B2 | 0.953 | 0.22 | 0.659 | 1.06 | 0.38 | 0.259 | 0.598 | Absorbance at 450 nM [8]: 0.278; Absorbance at 450 nM [9]: 0.101; Absorbance at 450 nM [10]: 0.038; Absorbance at 450 nM [11]: 0.356; Absorbance at 450 nM [12]: 0.08; Absorbance at 450 nM [13]: 0.054; Absorbance at 450 nM [14]: 0.078; Absorbance at 450 nM [15]: 0.06; Absorbance at 450 nM [16]: 0.04; Absorbance at 450 nM [17]: 0.059; Absorbance at 450 nM [18]: 0.047; Absorbance at 450 nM [19]: 0.045; Absorbance at 450 nM [20]: 1.38; Absorbance at 450 nM [21]: 0.557; Absorbance at 450 nM [22]: 0.046; Absorbance at 450 nM [23]: 0.782; Absorbance at 450 nM [24]: 0.372; Absorbance at 450 nM [25]: 0.2 |
| B3 | 1.65 | 1.78 | 1.74 | 1.69 | 1.85 | 1.77 | 1.37 | – |
| B4 | 1.3 | 0.567 | 1.51 | 1.25 | 0.058 | 0.169 | 0.641 | – |
